What all share (conditions): tags: R&D Systems; chain copies: 2
The target in data set [1] is T1, NGF (nerve growth factor) (Homo sapiens, UniProt P01138 P01138:122-241). Nature of the data set: SPR; 145 mM NaCl, 5.4 mM KCl, 1.8 mM CaCl2, 0.8 mM MgCl2, 20 mM Tris pH 7.6; strong inhibition of NGF-receptor binding. On the technique in general: Surface plasmon resonance follows binding to a sensor surface in real time, without labels.
Data set [2] concerns the target T1, NGF (nerve growth factor). Nature of the data set: SPR; neurite inhibition at 10 nM; no TF-1 inhibition. On the procedure: The cells (2500 cells per well) were cultured for one day in an RPMI-1640 medium containing 2.5% horse serum and 1.25% fetal bovine serum in a 96 well flat-bottom plate coated with collagen type IV. […] Two days later, the cytoplasm and nuclei were stained using Cellomics Neurite Outgrowth Kit (manufactured by Thermo Scientific), and neurite length per cell was measured by Cellomics ArrayScan VTI (manufactured by Thermo Scientific). With the neurite length per cell obtained by the addition of NGF alone as inhibitory activity 0%, and that of the cell obtained by NGF free culture for 2 days as inhibitory activity 100%, the inhibitory activity of the aptamer was calculated from the neurite length per cell obtained by culturing with the addition of NGF and the aptamer in mixture.
Two NGF receptor (human TrkA and human p75) genes were introduced into TF-1 cells (ATCC Number: CRL-2003), which is a human erythroleukemic cell line, by using a retrovirus vector to give cells that highly express two receptors simultaneously and stably. The cells were suspended in an RPMI-1640 medium containing 20% fetal bovine serum, and seeded in a white 96 well flat-bottom plate at 1000 cells (50 μL) per well. […]

Data set [3] deals with T1, NGF (nerve growth factor). Nature of the data set: cell_activity; neurite; TF-1 0.034.
In data set [4] the target is T2, NT-4 (neurotrophin-4) (Homo sapiens, UniProt P34130 P34130:81-210).
T2 sequence: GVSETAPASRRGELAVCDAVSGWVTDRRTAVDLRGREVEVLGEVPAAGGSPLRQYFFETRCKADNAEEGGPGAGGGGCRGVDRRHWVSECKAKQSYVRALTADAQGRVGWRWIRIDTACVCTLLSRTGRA
In words: cell_activity; TF-1.

The target of data set [5] is T3, NT-3 (neurotrophin-3) (Homo sapiens, UniProt P20783 P20783:139-257).
T3 sequence: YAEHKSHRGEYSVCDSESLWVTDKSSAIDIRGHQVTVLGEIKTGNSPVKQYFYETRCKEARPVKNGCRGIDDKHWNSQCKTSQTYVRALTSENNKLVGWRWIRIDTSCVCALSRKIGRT
In words: cell_activity; TF-1.

The target in data set [6] is T1, NGF (nerve growth factor). In words: cell_activity; neurite; TF-1 0.037.
Data set [7] addresses T1, NGF (nerve growth factor). In words: cell_activity; neurite; TF-1 0.085.
The target of data set [8] is T1, NGF (nerve growth factor). Nature of the data set: cell_activity; neurite; TF-1 0.084. The procedure:
(§1) With the neurite length per cell obtained by the addition of NGF alone as inhibitory activity 0%, and that of the cell obtained by NGF free culture for 2 days as inhibitory activity 100%, the inhibitory activity of the aptamer was calculated from the neurite length per cell obtained by culturing with the addition of NGF and the aptamer in mixture.
(§2) Two NGF receptor (human TrkA and human p75) genes were introduced into TF-1 cells (ATCC Number: CRL-2003), which is a human erythroleukemic cell line, by using a retrovirus vector to give cells that highly express two receptors simultaneously and stably. The cells were suspended in an RPMI-1640 medium containing 20% fetal bovine serum, and seeded in a white 96 well flat-bottom plate at 1000 cells (50 μL) per well. […] With the amount of luminescence per well obtained by the addition of NGF alone and culture of the cells for 3 days as inhibitory activity 0%, and that of the well obtained by NGF free culture for 3 days as inhibitory activity 100%, the inhibitory activity of the aptamer was calculated from the amount of luminescence per well obtained by culturing with the addition of NGF and the aptamer in mixture.

Data set [9] has as its target T1, NGF (nerve growth factor). Nature of the data set: cell_activity; neurite; TF-1 0.021.
For data set [10], the target named is T1, NGF (nerve growth factor). In words: cell_activity; neurite; TF-1 0.022.
Data set [11] has as its target T1, NGF (nerve growth factor). In words: cell_activity; neurite; TF-1 0.979.
The target in data set [12] is T1, NGF (nerve growth factor). Nature of the data set: cell_activity; neurite; TF-1 0.018. On the procedure:
as §1, §2

The target of data set [13] is T1, NGF (nerve growth factor). Nature of the data set: cell_activity; neurite outgrowth inhibition; TF-1 IC50 6.924 nM.

Substitutions are numbered along the chain they refer to.

T1 sequence (P01138 122-241, one chain of several): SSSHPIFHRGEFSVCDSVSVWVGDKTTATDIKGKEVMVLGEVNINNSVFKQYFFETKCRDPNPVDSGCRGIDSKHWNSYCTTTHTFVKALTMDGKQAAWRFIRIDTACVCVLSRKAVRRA

B1: SEQ ID NO: 1 (ssRNA)
RNA: GGGAGAACUUCGACCAGAAGUUGACGACCAACUCGUCUCUUAUGGAUUUACGUGAACCCGUAUGUGCGCAUACAUGGAUCCUC
modifications: 2'-F C and U; 2'-OH G; 2'-H (deoxy) A
On to B1, for which the binding result in [1] is given as “binds”.

B2: SEQ ID NO: 99 (ssRNA)
RNA: GGGAGAACUUCGACCAGAAGUCCAAACGGGACUUUAUACCUCUGAGUCGCCUUUGCUCCUAUGUGCGCAUACAUGGAUCCUC
modifications: 2'-F C/U, dA, 2'-OH G
With B2, in data set [2], the binding result is recorded as “binds”.

B3: SEQ ID NO: 100 (ssRNA)
RNA: GGGAGAACUUCGACCAGAAGACCAAACGGACUUUAUACCUCUGAGUCGCCUAUGCUCCUAUGUGCGCAUACAUGGAUCCUC
modifications: 2'-F C/U, dA, 2'-OH G
With B3, the binding result in data set [2] is given as “binds”.

B4: SEQ ID NO: 82(6) (ssRNA)
RNA: GGGUCCUGGAUAAGAGUUUCCGUCUCGUAUCCUGUUACCC
modifications: as 82(1) except 2'-OMe C21
Usually IC50 stands for the concentration that inhibits the measured activity by half. On to B4, for which the IC50 is 0.128 nM in data set [3], under 3 nM in data set [4] and under 30 nM in data set [5].

B5: SEQ ID NO: 82(13) (ssRNA)
RNA: B4 RNA
modifications: as 82(1) except 2'-OMe C32
Take B5: the IC50 in data set [3] stood at 0.146 nM; in [4] it was 3.06 nM; in data set [5] it was 48.8 nM.

B6: SEQ ID NO: 166 (ssRNA)
RNA: B4 RNA with U17T, U33T
modifications: as 82(48) except dT17,dT33,dU36
In the case of B6, in [6], the IC50 came out at 0.113 nM. This counts as sub-nanomolar.

B7: SEQ ID NO: 167 (ssRNA)
RNA: B4 RNA with U17T, U33T
modifications: as 82(48) except dT17,dT33
B7 yielded a half-maximal inhibitory concentration (IC50) in data set [6] of 0.128 nM.

B8: SEQ ID NO: 156 (ssRNA)
RNA: B4 RNA with U17T
modifications: as 82(1) except dT17
As for B8, the IC50 is under 3 nM in data set [4], under 30 nM in data set [5] and under 0.1 nM in data set [7].

B9: SEQ ID NO: 82(23) (ssRNA)
RNA: B4 RNA
modifications: as 82(1) except 2'-OMe U4,C6,U11,C21,U23,C26,U30,C31,C32,U35,C38-40
In the case of B9, the IC50 in data set [8] is under 0.1 nM; in data set [5], under 30 nM.

B10: SEQ ID NO: 82(42) (ssRNA)
RNA: B4 RNA
modifications: as 82(25) except 2'-OMe A15
B10 registered an IC50 in [9] of 0.037 nM.

B11: SEQ ID NO: 82(24) (ssRNA)
RNA: B4 RNA
modifications: as 82(1) except 2'-OMe U4,C6,U11,C21,U23,U28,U30,C31,C32,U35,C38-40
Regarding B11, the IC50 in data set [8] is under 0.1 nM; in data set [5] it was under 30 nM.

B12: SEQ ID NO: 82(47) (ssRNA)
RNA: B4 RNA
modifications: as 82(25) except 2'-OMe A37
B12 displayed an IC50 in data set [10] of 0.046 nM. In other words, the picomolar range.

B13: SEQ ID NO: 82(21) (ssRNA)
RNA: B4 RNA
modifications: as 82(1) except 2'-OMe U4,C6,U11,C21,U23,U28,U30,C32,U35,C38-40
As for B13, the figures for the half-inhibitory concentration (IC50) in data set [5] and in data set [7] were under 30 nM and under 0.1 nM, respectively.

B14: SEQ ID NO: 82(46) (ssRNA)
RNA: B4 RNA
modifications: as 82(25) except 2'-OMe A29
B14 showed an IC50 in data set [10] of 0.033 nM.

B15: SEQ ID NO: 88 (ssRNA)
RNA: GGGUCCUGUUCAAGAGUUUCCGUCUCGUGAACUGUUACCC
modifications: 2'-F C/U, dA, 2'-OH G
As to B15, 0.572 nM corresponded to half-maximal inhibition in [11] (IC50).

B16: SEQ ID NO: 78(4) (printed 76(4) in sequence list) (ssRNA)
RNA: B15 RNA with U9G, U10C, A30G, A31U
modifications: 2'-OMe G (G8,G34 2'-OH), dA, 2'-F C/U except 2'-OMe U4,C6,C10,C11,C21,U23,C26,U28,U31,C32,U35,C38-40; 5',3' idT
Regarding B16, the IC50 in data set [4] was under 100 nM; in data set [5], 3 nM; in [9], 0.037 nM.

B17: SEQ ID NO: 78(1) (ssRNA)
RNA: B15 RNA with U9G, U10C, A30G, A31U
modifications: 2'-OMe G (G8,G34 2'-OH), dA, 2'-F C/U; 5',3' idT
B17: in data set [12], the IC50 came out at 0.12 nM.

B18: SEQ ID NO: 81 (ssRNA)
RNA: GGGUCCUGGUGAUAAGUUUCCGUCUUAUCACCUGUUACCC
modifications: 2'-F C and U; 2'-OH G; 2'-H (deoxy) A
B18 came in with an IC50 in data set [13] of 0.765 nM.
